The results in this text go back to patent publication US20210332152A1.

The target in experiment [1] is human IgG (human). Nature of the experiment: SPR (BIAcore T200), peptide immobilised on sensor chip, human IgG injected.
Experiment [2] deals with human serum-derived γ-globulin (Sigma-Aldrich) (human). Nature of the experiment: column chromatography; 0.5 mg synthetic peptide immobilised on NHS-activated column, 1 mg/mL γ-globulin fed, 10% breakthrough.

For orientation: Kd means the equilibrium constant for the complex coming apart. By koff is commonly meant the first-order rate constant of dissociation. Lower therefore signals a long-lived complex. What is called kon is the rate constant with which the complex forms. Take GPDCAYHRGELVWCTFH [peptide (amino acid sequence: SEQ ID NO: 18) prepared by chemical synthesis]: in experiment [1], the Kd was found to be 14 nM, the off-rate constant (koff) worked out at 0.0048 s⁻¹ and the kon was determined as 330000 M⁻¹ s⁻¹. Also, the dynamic binding capacity (DBC) in experiment [2] stood at 6.9 mg/mL-column.
